# Measured values from US20250333496A1 (Novo Nordisk, published 2025).
# Changes are numbered by the printed parent chain. Several values for one entry are separate records, joined by “and”; a condition that tells them apart may be missing. Identical values can stand only once.
# B1: Polypeptide_22 (VHH)
# VHH: EVQLVESGGGLVQPGGSLKLSCTTSGRRFSEYAVGWFRQGPGKEREFVADIGEQAENTWYAESVLGRFTISRDDAKNTVYLQMDSLKPEDTAVYYCAADKYGVGGNAQGYYDSWGQGTQVTVSS
# notes: VHH_1.2 with C-terminal His tag extension E1; also called [VHH_1.2]-E1
# B2: Polypeptide_55 (VHH)
# VHH: B1 VHH with G40A, E56D, Q82E, S85G
# B3: Polypeptide_57 (VHH)
# VHH: B1 VHH with G40A, L65K, Q82E, S85G
# B4: Compound 3 (VHH)
# VHH: B1 VHH with E1Q, V2L, L11W, K19Q, G40A, K43Q, E62H, D74E
# modifications: Chem. 24 (C16 diacid substituent) on Cys in position 4 and on Cys in position 6 of the extension (SEQ ID NO: 72); found mass includes position 1 Gln to pyroGlu formation
# B5: Polypeptide_54 (VHH)
# VHH: B1 VHH with G40A, Q54N, Q82E, S85G
# B6: Polypeptide_56 (VHH)
# VHH: B1 VHH with G40A, E62H, Q82E, S85G
# B7: Polypeptide_49 (VHH)
# VHH: B1 VHH with E1Q, G40A, Q82E, S85G
# B8: Polypeptide_51 (VHH)
# VHH: B1 VHH with L11W, G40A, Q82E, S85G
# B9: Polypeptide_46 (VHH)
# VHH: B1 VHH with E1Q, V2L, L11W, K19Q, G40A, K43Q, E62H, D74E
# B10: Polypeptide_52 (VHH)
# VHH: B1 VHH with R28T, G40A, Q82E, S85G
# B11: Compound 6 (VHH)
# VHH: B1 VHH with K19Q, E62H
# modifications: Chem. 24 (C16 diacid substituent) on Cys in position 4 and on Cys in position 6 of the extension (SEQ ID NO: 72)
# notes: Polypeptide derivative; extension E2 at the C-terminus of the VHH; also called VHH_1.3-E2 with 2x Chem. 24
# B12: Polypeptide_53 (VHH)
# VHH: B1 VHH with E31S, G40A, Q82E, S85G
# B13: Polypeptide_58 (VHH)
# VHH: B1 VHH with G40A, D74N, Q82E, S85G
# B14: Polypeptide_50 (VHH)
# VHH: B1 VHH with V2L, G40A, Q82E, S85G
# B15: Compound 10 (VHH)
# VHH: B1 VHH with K19Q, R28K, S30D, K43Q, Q54N, Q82E, S85G
# modifications: Chem. 24 (C16 diacid substituent) on Cys in position 4 and on Cys in position 6 of the extension (SEQ ID NO: 72)
# notes: Polypeptide derivative; extension E2 at the C-terminus of the VHH; also called VHH_1.7-E2 with 2x Chem. 24
# B16: Polypeptide_27 (VHH)
# VHH: B1 VHH with K19Q, R28K, S30D, G40A, Q54N, E62H
# notes: VHH_1.4 with C-terminal His tag extension E1; also called [VHH_1.4]-E1
# B17: Polypeptide_31 (VHH)
# VHH: B1 VHH with K19Q, R28K, S30D, K43Q, Q54N, Q82E, S85G
# notes: VHH_1.7 with C-terminal His tag extension E1; also called [VHH_1.7]-E1
# B18: Compound 4 (VHH)
# VHH: B1 VHH with L11W, K19Q, G40A, K43Q, E62H, D74E
# modifications: Chem. 24 (C16 diacid substituent) on Cys in position 4 and on Cys in position 6 of the extension (SEQ ID NO: 72)
# notes: Polypeptide derivative; extension E2 at the C-terminus of the VHH; also called VHH_1.1-E2 with 2x Chem. 24
# B19: Compound 7 (VHH)
# VHH: B1 VHH with K19Q, R28K, S30D, G40A, Q54N, E62H
# modifications: Chem. 24 (C16 diacid substituent) on Cys in position 4 and on Cys in position 6 of the extension (SEQ ID NO: 72)
# notes: Polypeptide derivative; extension E2 at the C-terminus of the VHH; also called VHH_1.4-E2 with 2x Chem. 24
# B20: Compound 5 (VHH)
# VHH: B1 VHH
# modifications: Chem. 24 (C16 diacid substituent) on Cys in position 4 and on Cys in position 6 of the extension (SEQ ID NO: 72)
# notes: Polypeptide derivative; extension E2 at the C-terminus of the VHH; also called VHH_1.2-E2 with 2x Chem. 24
# B21: Compound 8 (VHH)
# VHH: B1 VHH with K19Q, R28K, S30D, Q54N
# modifications: Chem. 24 (C16 diacid substituent) on Cys in position 4 and on Cys in position 6 of the extension (SEQ ID NO: 72)
# notes: Polypeptide derivative; extension E2 at the C-terminus of the VHH; also called VHH_1.5-E2 with 2x Chem. 24
# B22: Polypeptide_47 (VHH)
# VHH: B1 VHH with E1Q, V2L, L11W, G40A, E62H, D74E, D84N
# notes: VHH_1.15 with C-terminal His tag extension E1; also called [VHH_1.15]-E1
# B23: Polypeptide_28 (VHH)
# VHH: B1 VHH with K19Q, R28K, S30D, Q54N
# notes: VHH_1.5 with C-terminal His tag extension E1; also called [VHH_1.5]-E1
# B24: Compound 9 (VHH)
# VHH: B1 VHH with G40A, Q82E, S85G
# modifications: Chem. 24 (C16 diacid substituent) on Cys in position 4 and on Cys in position 6 of the extension (SEQ ID NO: 72)
# notes: Polypeptide derivative; extension E2 at the C-terminus of the VHH; also called VHH_1.6-E2 with 2x Chem. 24; Chem. 31
# B25: Polypeptide_24 (VHH)
# VHH: B1 VHH with K19Q, E62H
# notes: VHH_1.3 with C-terminal His tag extension E1; also called [VHH_1.3]-E1
# B26: Compound 1 (VHH)
# VHH: QLQLVESGGGWVQPGGSLQLSCTTSGRTFSSYAVGWFRQAPGQEREFVADIGENADNTWYAHSVKGRFTISRDNAKNTVYLQMDSLKPEDTAVYYCAADSYGVGGGAQGYYDSWGQGTQVTVSS
# modifications: Chem. 24 (C16 diacid substituent) on Cys in position 4 and on Cys in position 6 of the extension (SEQ ID NO: 72)
# notes: Polypeptide derivative; extension E2 at the C-terminus of the VHH; also called VHH_1.12-E2 with 2x Chem. 24
# B27: Compound 12 (VHH)
# VHH: EVQLVESGGGLVQPGGSLQLSCAASGFTFSNYWMYWVRQAPGQGLEWVSGINTGGSTPDYADSVKGRFAISRDNAKNTLYLQMDSLRPEDTAVYYCAADTPRVFRLDHYSPLGQGTQVTVSS
# modifications: Chem. 24 (C16 diacid substituent) on Cys in position 4 and on Cys in position 6 of the extension (SEQ ID NO: 72)
# notes: Polypeptide derivative; extension E2 at the C-terminus of the VHH; also called VHH_1.17-E2 with 2x Chem. 24
# B28: Compound 2 (VHH)
# VHH: EVQLVESGGGLVQAGGSLQLSCTASGGTFSEYAMAWFRQAPGQEREFVTDIGESGGTWYADSVKGRFTISRDNAKNTVYLQMDSLRPEDTAVYYCAADSYGVGGGAERYYDSWGQGTQVTVSS
# modifications: Chem. 24 (C16 diacid substituent) on Cys in position 4 and on Cys in position 6 of the extension (SEQ ID NO: 72)
# notes: Polypeptide derivative; extension E2 at the C-terminus of the VHH; also called VHH_1.13-E2 with 2x Chem. 24
# Assays:
# [1] = target: T1, human IL-6 (mature hIL-6) (human, UniProt P05231 30-212); assay: cell-based or functional assay
# [2] = target: T2, recombinant human HPC4-tagged IL-6 (human, UniProt P05231 30-212); assay: SPR, HPC4-IL-6 captured on anti-HPC4 antibody, VHH injected, 25 C, 1:1 model
# T2 construct: captured on an anti-HPC4 antibody in SPR; also called HPC4-human IL6
# Procedure: Binding of purified anti-IL-6 VHHs to recombinant human HPC4-tagged IL-6 (SEQ ID NO: 98) was probed by Surface Plasmon Resonance (SPR).
# IL-6 was captured at a flow rate of 10 μL/min for 30 seconds.
# Subsequently, concentration series of VHH polypeptides according to Table 33 were injected at a flow rate of 50 μL/min for 200 seconds to allow for binding to […] followed by 600 seconds running buffer (10 mM HEPES, 150 mM NaCl, 5 mM CaCl₂, 0.05% (v/v) Surfactant P20, 1 mg/mL bovine serum albumin, pH 7.4) injection allowing dissociation from IL-6. The running buffer was also used for dilution of anti-IL-6 VHHs and IL-6. Regeneration of the chip was achieved using a regeneration buffer consisting of 50 mM EDTA in running buffer without CaCl₂, 30 seconds contact time, and a 30 μL/min flow rate applied twice to the surface. The binding data were collected at 25° C. at either a Biacore instrument (Cytiva AB, Uppsala) or a Bruker SPR32 (Bruker Daltonics). Data were analysed according to a 1:1 model using either BiaEvaluation or Biacore Insight Evaluation (Cytiva AB, Uppsala) or Bruker Analyser (Bruker Daltonics).
# [3] = target: T1, human IL-6 (mature hIL-6); assay: cell-based or functional assay; remark: listed apart in the source
# T2 sequence (P05231 other isoform, or with tags, fused parts or gaps limits assumed): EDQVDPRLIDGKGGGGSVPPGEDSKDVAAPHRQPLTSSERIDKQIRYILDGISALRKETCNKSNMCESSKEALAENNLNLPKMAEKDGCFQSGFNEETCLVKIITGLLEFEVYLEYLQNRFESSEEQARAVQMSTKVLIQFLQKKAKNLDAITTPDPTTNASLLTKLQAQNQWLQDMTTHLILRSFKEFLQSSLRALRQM
# T1 sequence (P05231 30-212): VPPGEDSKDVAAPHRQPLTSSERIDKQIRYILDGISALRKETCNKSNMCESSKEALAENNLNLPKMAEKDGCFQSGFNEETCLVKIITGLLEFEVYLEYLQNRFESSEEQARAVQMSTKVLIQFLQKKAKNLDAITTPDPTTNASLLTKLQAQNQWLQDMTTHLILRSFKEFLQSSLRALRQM
Binder,"IC 50 (nM), reporter gene assay, 0% HSA [1]",Kd [2],koff [2],kon [2],"IC50 (nM), STAT3-luc reporter gene assay [3]",Relative IC50 to Reference Polypeptide_29 [3],"IC 50 (nM), reporter gene assay, 1% HSA [1]"
B1,0.029 nM,0.00721 nM,0.000147 s⁻¹,2.03e+07 M⁻¹ s⁻¹,–,–,–
B2,–,–,–,–,0.278 nM,8.1 fold,–
B3,–,–,–,–,0.08 nM,2.3 fold,–
B4,0.029 nM,–,–,–,–,–,0.029 nM
B5,–,–,–,–,0.15 nM,4.4 fold,–
B6,–,–,–,–,0.168 nM,4.9 fold,–
B7,–,–,–,–,0.051 nM,1.5 fold,–
B8,–,–,–,–,0.053 nM,1.5 fold,–
B9,0.021 nM,–,–,–,–,–,–
B10,–,–,–,–,0.055 nM,1.6 fold,–
B11,0.018 nM,0.0161 nM and 0.0214 nM,7.82e-05 s⁻¹ and 9.95e-05 s⁻¹,4.94e+06 M⁻¹ s⁻¹ and 4.65e+06 M⁻¹ s⁻¹,–,–,0.016 nM
B12,–,–,–,–,0.05 nM,1.5 fold,–
B13,–,–,–,–,0.047 nM,1.4 fold,–
B14,–,–,–,–,0.049 nM,1.4 fold,–
B15,0.022 nM,0.0191 nM and 0.0208 nM,0.000108 s⁻¹ and 9.33e-05 s⁻¹,4.48e+06 M⁻¹ s⁻¹ and 5.68e+06 M⁻¹ s⁻¹,–,–,0.016 nM
B16,0.026 nM,0.00755 nM,0.000163 s⁻¹,2.16e+07 M⁻¹ s⁻¹,–,–,–
B17,0.023 nM,0.0175 nM,0.000154 s⁻¹,8.82e+06 M⁻¹ s⁻¹,–,–,–
B18,0.024 nM,0.0142 nM and 0.0191 nM,6.98e-05 s⁻¹ and 9.08e-05 s⁻¹,4.9e+06 M⁻¹ s⁻¹ and 4.75e+06 M⁻¹ s⁻¹,–,–,0.015 nM
B19,0.025 nM,0.0252 nM and 0.0338 nM,0.000127 s⁻¹ and 0.000154 s⁻¹,5.05e+06 M⁻¹ s⁻¹ and 4.56e+06 M⁻¹ s⁻¹,–,–,0.019 nM
B20,0.019 nM,0.0159 nM and 0.0214 nM,7.82e-05 s⁻¹ and 9.95e-05 s⁻¹,4.94e+06 M⁻¹ s⁻¹ and 4.65e+06 M⁻¹ s⁻¹,–,–,0.012 nM
B21,0.02 nM,0.0221 nM and 0.0296 nM,0.000101 s⁻¹ and 0.000123 s⁻¹,4.58e+06 M⁻¹ s⁻¹ and 4.16e+06 M⁻¹ s⁻¹,–,–,0.017 nM
B22,0.017 nM,–,0.00014 s⁻¹ and 0.000208 s⁻¹ and 0.000137 s⁻¹,2.59e+07 M⁻¹ s⁻¹ and 1.05e+07 M⁻¹ s⁻¹ and 2.03e+07 M⁻¹ s⁻¹,–,–,0.01 nM
B23,0.027 nM,0.00508 nM,0.00013 s⁻¹,2.56e+07 M⁻¹ s⁻¹,–,–,–
B24,0.022 nM,0.0187 nM and 0.0218 nM and 0.0223 nM,8.71e-05 s⁻¹ and 0.000105 s⁻¹ and 0.000101 s⁻¹,4.66e+06 M⁻¹ s⁻¹ and 4.82e+06 M⁻¹ s⁻¹ and 4.53e+06 M⁻¹ s⁻¹,–,–,0.014 nM
B25,0.019 nM,0.00321 nM,0.000132 s⁻¹,4.12e+07 M⁻¹ s⁻¹,–,–,–
B26,0.029 nM,0.0637 nM and 0.0454 nM,0.000364 s⁻¹ and 0.000371 s⁻¹,5.67e+06 M⁻¹ s⁻¹ and 8.18e+06 M⁻¹ s⁻¹,–,–,0.06 nM
B27,–,0.0543 nM,0.000216 s⁻¹,7.36e+06 M⁻¹ s⁻¹,–,–,0.021 nM
B28,0.065 nM,0.0523 nM,0.000348 s⁻¹,6.66e+06 M⁻¹ s⁻¹,–,–,0.041 nM
